Source: patent US20240240209A1, “SYNTHESIS OF ENANTIOPURE CIS-A-IRONE FROM A RENEWABLE CARBON SOURCE” (Agency for Science, Technology and Research, priority 2021, published 2024)
Where a chain is given by its changes, count along the chain named. Names and notes keep the numbering of the source.

B1: pMT1_E153Q: pMT1 with E153Q (protein)
chain: MPQEARTPQQQVTADEVGDWYDKFGEVYHLTLGESVHCGLWFPPDAPVPQDMELVTMSSQAQDRYTDYLIETLDPKAGQHLLDIGCGTGRTALKAARQRGIAVTGVAVSKEQIAAANRLAAGHGLTERLTFEVADAMRLPYEDESFDCAWAIQSLCHMDRAKALGEAWRVLKPGGDLLVLESVVTEELTEPETALFETLYAANVPPRLGEFFDIVSGAGFHTLSLKDLSANLAMTMNVFALGVYSRRAEFTERFGAEFVDGLLAGLGSAQETLIRKTRFFMATLRKPAV
B2: pMT1_E153A: pMT1 with E153A (protein)
chain: B1 chain with Q153A
B3: pMT1_E153W: pMT1 with E153W (protein)
chain: B1 chain with Q153W
B4: pMT1_E153D: pMT1 with E153D (protein)
chain: B1 chain with Q153D
B5: pMT1_E153V: pMT1 with E153V (protein)
chain: B1 chain with Q153V
B6: pMT1_E153S: pMT1 with E153S (protein)
chain: B1 chain with Q153S
B7: pMT1_E153T: pMT1 with E153T (protein)
chain: B1 chain with Q153T
B8: pMT1_E153C: pMT1 with E153C (protein)
chain: B1 chain with Q153C
B9: pMT1_E153R: pMT1 with E153R (protein)
chain: B1 chain with Q153R
B10: pMT1_E153Y: pMT1 with E153Y (protein)
chain: B1 chain with Q153Y
B11: pMT1_M236V (protein)
chain: B1 chain with Q153E, M236V
B12: pMT1_M236W: pMT1 with M236W (protein)
chain: B1 chain with Q153E, M236W
B13: pMT1_M236C: pMT1 with M236C (protein)
chain: B1 chain with Q153E, M236C
B14: pMT1_M236E: pMT1 with M236E (protein)
chain: B1 chain with Q153E, M236E
B15: pMT1_M236A: pMT1 with M236A (protein)
chain: B1 chain with Q153E, M236A
B16: pMT1_M236S: pMT1 with M236S (protein)
chain: B1 chain with Q153E, M236S
B17: pMT1_M236T: pMT1 with M236T (protein)
chain: B1 chain with Q153E, M236T
B18: pMT1_M236Y: pMT1 with M236Y (protein)
chain: B1 chain with Q153E, M236Y
B19: pMT1_M236R: pMT1 with M236R (protein)
chain: B1 chain with Q153E, M236R
B20: pMT1_M236D: pMT1 with M236D (protein)
chain: B1 chain with Q153E, M236D
B21: pMT1_R160T: pMT1 with R160T (protein)
chain: B1 chain with Q153E, R160T
B22: pMT1_R160E (protein)
chain: B1 chain with Q153E, R160E
B23: pMT1_R160V: pMT1 with R160V (protein)
chain: B1 chain with Q153E, R160V
B24: pMT1_R160D (protein)
chain: B1 chain with Q153E, R160D
B25: pMT1_R160W: pMT1 with R160W (protein)
chain: B1 chain with Q153E, R160W
B26: pMT1_R160Y (protein)
chain: B1 chain with Q153E, R160Y
B27: pMT1_R160A: pMT1 with R160A (protein)
chain: B1 chain with Q153E, R160A
B28: pMT1_R160C: pMT1 with R160C (protein)
chain: B1 chain with Q153E, R160C
B29: pMT1_R160S: pMT1 with R160S (protein)
chain: B1 chain with Q153E, R160S
B30: pMT1_S182T: pMT1 with S182T (protein)
chain: B1 chain with Q153E, S182T
B31: pMT1_S182E: pMT1 with S182E (protein)
chain: B1 chain with Q153E, S182E
B32: pMT1_Y200S: pMT1 with Y200S (protein)
chain: B1 chain with Q153E, Y200S
B33: pMT1_Y200T: pMT1 with Y200T (protein)
chain: B1 chain with Q153E, Y200T
B34: pMT1_Y200R (protein)
chain: B1 chain with Q153E, Y200R
B35: pMT1_Y200A: pMT1 with Y200A (protein)
chain: B1 chain with Q153E, Y200A
B36: pMT1_Y200W: pMT1 with Y200W (protein)
chain: B1 chain with Q153E, Y200W
B37: pMT1_Y200E: pMT1 with Y200E (protein)
chain: B1 chain with Q153E, Y200E
B38: pMT1_Y200C: pMT1 with Y200C (protein)
chain: B1 chain with Q153E, Y200C
B39: pMT1_Y200V: pMT1 with Y200V (protein)
chain: B1 chain with Q153E, Y200V
B40: pMT1_Y200D: pMT1 with Y200D (protein)
chain: B1 chain with Q153E, Y200D

assay: Cell lysate reaction of pMT enzymes with psi-ionone, irones quantified by HS-SPME-GCMS; type: biochemical; settings: pMT1_E153 mutants; AUC vs non-mutated (=1)
Outline: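 pMT1 site-saturation mutants were expressed in E. coli BL21(DE3) and lysed, and lysates were incubated 2 days at 28 °C with 0.2 mM SAM and 10 mg/L psi-ionone (plus caryophyllene) in 50 mM Tris pH 7, 10 mM MgCl2. Cis-α-irone was measured by HS-SPME-GCMS peak area and given as fold change over non-mutated enzyme.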

Compared with B1, B2 is higher in “fold change in cis-α-irone produced” value: 0.0 for the first, 0.1 for the second.

Compared with B3, B4 is higher in “fold change in cis-α-irone produced” value: 0.0 for the first, 0.2 for the second.

B5 and B6 are the same in “fold change in cis-α-irone produced” value: 0.0 for the first, 0.0 for the second.

B7 and B8 are the same in “fold change in cis-α-irone produced” value: 0.0 for the first, 0.0 for the second.

B9 and B10 are the same in “fold change in cis-α-irone produced” value: 0.0 for the first, 0.0 for the second.

same assay, conditions: pMT1_M236 mutants; AUC vs non-mutated (=1)

First: B11
Second: B12
The “fold change in cis-α-irone produced” value of the first is higher: 0.7 for the first, 0.2 for the second.

First: B13
Second: B14
The “fold change in cis-α-irone produced” value of the first is higher: 4.7 for the first, 0.9 for the second.

B15 and B16 are the same in “fold change in cis-α-irone produced” value: 0.7 for the first, 0.7 for the second.

Going from B17 to B18, the “fold change in cis-α-irone produced” value falls from 1.7 to 0.0.

B19 and B20 are the same in “fold change in cis-α-irone produced” value: 0.0 for the first, 0.0 for the second.

same assay, conditions: pMT1_R160 mutants; AUC vs non-mutated (=1)

First: B21
Second: B22
The “fold change in cis-α-irone produced” value of the first is higher: 1.2 for the first, 0.0 for the second.

First: B23
Second: B24
The “fold change in cis-α-irone produced” value of the first is higher: 1.5 for the first, 0.0 for the second.

Compared with B25, B26 is higher in “fold change in cis-α-irone produced” value: 0.7 for the first, 1.3 for the second.

Compared with B27, B28 is lower in “fold change in cis-α-irone produced” value: 1.7 for the first, 1.5 for the second.

With B29 the “fold change in cis-α-irone produced” value was 0.0.

same assay, conditions: pMT1_S182 mutants; AUC vs non-mutated (=1)

Going from B30 to B31, the “fold change in cis-α-irone produced” value rises from 0.23 to 0.84.

same assay, conditions: pMT1_Y200 mutants; AUC vs non-mutated (=1)

Going from B32 to B33, the “fold change in cis-α-irone produced” value falls from 0.2 to 0.0.

Going from B34 to B35, the “fold change in cis-α-irone produced” value rises from 0.0 to 0.2.

Compared with B36, B37 is lower in “fold change in cis-α-irone produced” value: 2.1 for the first, 0.0 for the second.

Going from B38 to B39, the “fold change in cis-α-irone produced” value rises from 0.1 to 1.1.

In the case of B40, the “fold change in cis-α-irone produced” value is reported as 0.0.
